In the domain aggregation screens of Martell et al. (2025):

Test: soluble fraction after stress (log2 fold change); higher = more stays soluble; pooled small domains, quantitative proteomics
Conditions: stress: 75 degC
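Note: 20 min heating vs room temperature control held 20 min.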

Sequence | soluble fraction (log2)
HMGPLTMGQRIVRLRTQAGLSQDALAEQLGVSRQSVSKWETDGSVPDLDRLVKLSKVFGVTLDELVKG | -0.202
HMGPPAVGAKLQVLRQARKLSLDELSRRAGVSKSMLSQVERNLANPTVAVLWRLATALGVGLADFLSP | -3.02
HMGPRVSAGPGRHRVQPGDTLDDIAARYRVSSRDLMLVNGLRNANHVEAGQTLKLPSNAVIA | 0.15
HMGPSLIRIASNPVAEVFIDGTRVGTTPFEMPADGTLKTVRLTAKDHDDLVVPLRSMKSMEIMLTLRRI | -2.54
HMGPTLTDEEEVVLNLLEKNHPVLLSELKENAGLSNKKWDKAIKGLSAHKLAKVTKTDDGLFVHLS | 0.615
HMGPTPTSAQLTEAKRLRTKLDDLNPELAERLWSEHREPYTETQYQTLIEKLAAEVQSAEGEIGR | 0.222
HMGPVRRDLEINGRMVPLTIREHARATRITLRIEPGGQALRLTIPPGLPTREVDSFLTRHHGWLMTKLAHI | -2.47
HMGPWTETAAKGDAVSKRMLITWLQENADAEFLAAQKLTGQATSVAKRVTKDQLVELYLSVTTAA | -1.42
HMGQAAHYEGVKGDGESDTDVISRVLTAAGAEAQKDDIFVVKELIAGGKYSYTAYVYDGSVWAAM | -0.529
HMGQAEEVRYSTFLDEVRNGRIEQVVLQGEHIIGTRKDKTVFSVFNPETDYTALIGTLSKSGVTIEGRP | 0.283
HMGQARQSAIRELGNDPTSGKKITVRSGRYGPYVTDGEVNASLRKGDDPQTIDLDRAIELLAARREKLG | -0.148
HMGQDGFIGLEAAKKLVLQKLGLTSAEFIKAELDAEDRKYELELIVDGIEYDFDIDAYSGAFLKQEQETV | -0.519
HMGQEEKDIFLKLINISGIGPKLALNILSGIEASELEEAVRNTNVTRLSMVPGIGQKTALRIIMELSDKLE | -0.298
HMGQELTMPDLKSMSRSNAEEKLKKMGLKLGAVFEENAKEPAGTVINQDPRSGSKITKGQTVDITVSLGEK | 0.265
HMGQERAVPDVKGQSFDMAQGNISRAGLKAVVTDSVYDSYARPGTVVEQSPIPLAKIKRGGTVYLTLVA | -0.118
HMGQGSAFVYYEVLPKQTEYSLTRKLGLGYADLLSLNPQLARGLQAGMVLKIPRDKAGNLEVKNDLILE | -0.643
HMGQISLSVNAIPEKAEVILDGNSIGNTPIRKNTITPGSHMFEIEKKGYAPISYDIYVNPSKAINLDFFM | -0.974
HMGQKDYKTRLQEYFAKQGLKVNYEDTSHGPDHNKNFSTDVFLDGKIIGSGIGKSKKSSQQSAAKDALNIL | 0.473
HMGQLIGKEEAKQIALSRAGVAEGDISRYESELDTDDGKTKYEISFHVGRVEYDIEINAVTGAVEKFEMDN | 0.587
HMGQTDTIIKTTTDLYYEMSTMSDDDKLVVAQTLRDVWMAVGRWSGKLSKKQREKVAEVKRVLGE | -0.866
HMGQVAKPPLKELGADPVTGKPMVLKDGRFGPYVTDGEYNASLRKDDDIETIGVERAAELLQIRREKGP | -0.252
HMGQVGIPFSDFLAEVENGQVREVVIKGNDISGTFNDNRGFSTYAPNDPNLVEKLTKRGVVINAQPTE | 0.077
HMGQVSEAGELEVAADRVIAANPEAVTKYKSGNENILQFLVGQMMKETKGAANPQVAAEILRKKIV | 0.065
HMGRELDLNQRVYDFIHDIADEVRTDEGTFSANQMMERFLFPGDLQSVPIGRLSGGERRRLYLLSVLMVKI | -0.0184
HMGRFPSLTPVVIDALTAQYREHPGWTVQLHVDNLRVVLAANQTPLPSYPTIRRYLLAQGMRRQTRP | -0.396
HMGRLNMRRIRDVLRLKFGQGLSERQVAASLGLSKTSVGTYLHRARQAGLTWPLPQGLDDDGLELLLFP | -1.69

Sequence | soluble fraction (log2)
HMGRMTRKDRALATDLYGRIVGNVDDFHEGRIDYETFSERQRGLWTTLDAAGPEVKRAVLADIRERL | -0.563
HMGRWQPSTSAKQHGESALLLERLLHLERLTVSEAFHVLTINHRLNLSLPEYRSLLAVVQLPK | -1.8
HMGRYDWIEQIDDPVLAERLKHLTEDDLELLTRYVFEDATQKELASQYGIGQQSVSKRLKKLKSFLTK | -0.355
HMGSATAPDLKGLTYEQAQTKAEDAGYNIEKGEDVYDNDVEKGKVASQDPEAGAEAKEGSVITVNISK | -0.0215
HMGSFAADVGRMVRLGRAKRGISRRKLAADSGISERYLAQIEGGQGNPSVNVLKAIADAISVPVFELLPH | -1.74
HMGSFDDAPDQLRQSILQLLAEGPLPPSAITERLNISREDATEALQQLLDEQRIFAVNGMLQLQPG | -0.109
HMGSFTDKQIKQAFGVLNDPRFKQGNYDGAVAVINKIAPGLADHPSVANALKRANEATQDIAQQTQA | 0.0868
HMGSGQIRYITENTVRVVYGTSKENEFVFQDGKPYPKDTPYHIHYTRNLEEYFMSGVEHDKNSKIILKVD | -0.946
HMGSGVNVTVNGKRMNLPLKDDHIIFVDIFNYIDFDLSKPKGSIVLKLNGRDAGYTDPIKDGDVIDIYWQ | -0.301
HMGSIDYLVGSRLRQYRRLRGYSLIEFSAMLHRSKSAISKYERGEVSIDLRTLNEMARLLDIPLSGLLL | -4.56
HMGSIEASFEEDVRRYLARKSMTTTEISKKMRQKRPDMSRDQLMTLLANAIKRIKPIKKKIKGTLYLSLE | -2.07
HMGSIMIIVLKENAPQQAAEKLMKEIRAKGLQIDVSKGTRKTVLGLVGDTSVIDMEHVQGYDYVDKVLRV | -1.11
HMGSKDLPFSTFMSEIDKGNITSVDIRGNEIQGTFANGTKFRTYSPNYPNLVEKLNGKGVSITAGPV | 0.409
HMGSKKITIYVSGEVKNPGIVTLNSDQRLASAVEKLGGVTENADMNNINLAMKLEDEMHYIIPKKGEK | -0.0389
HMGSKQVSVPDVRNLDYERASQQLREAGFVVGDVLRIRDDRAPAGTVIAQSPAAPALVPENARVSLLVSSG | 0.124
HMGSLAVVPSLTGKTLQEAQSKAADYGLALEIEGYVASTAVDYGRIVSQSPDAGFSVKSGSSVKVSVSAG | -0.0619
HMGSLGRAIRSRREKMKVGLEELAAKTGLSESHISDIEEGRGFAPVGDILKIARALTIDPGELLK | 0.49
HMGSLGSLLKSVRNQRGLSRQQMAQSLNIGVRAIEQIEEGERKPDLELLNRYARGLMDPSVT | -0.166
HMGSLKEKIVLLEKLYQQNPSEEIKLLLINTYQLNHQYIQARKLFFTLTPEQKEKLPLASEFLIFL | -1.04
HMGSLNDQVMKYIDALPSAFNKRELDFLIERGVKEFALNGEYLEKAIINEYKLTADTYHRER | 0.0903
HMGSLQPLLLAAIDALQTHIRSGLPFRVEERLAELDQFRTELQNGSVPPQRGVNRLWAFYEDEFRL | -1.06
HMGSLRSALDGIPGIGEQYQKRLLAQFGSVKAMRSASVEDFEAVRGIGRAKAQALYDALHAG | -0.221
HMGSLVVVPNLVGQNYDEVKLSTKYSDFEIVQKNTEYSEAPAGQIIKQDPEAGTKVKKHSTINVTVSK | -0.167
HMGSQELIQLGERIRQKRKDSHLTQETFAEKAGISVNTVSRIEGGQAAMSIEIFAKLVEILDADANELLG | -1.39
HMGSRAEAKEFLQTMLADGRQLATDMEEARQAHDIADRTLRRARKELNVQVYRDGNAWYWELPTPIK | -0.585
HMGSREVPFSDFISKVESGSVLEVVLRGRQVEGLTDANERFQTQIPNYPALFEILERNQVRTRVEPT | -0.0642

Sequence | soluble fraction (log2)
HMGSTATVIASRLNMRASASTTGALLTKIPNGATVTVLGTTGAWSHIRYGSYTGYVMSQYLRING | -3.1
HMGSTVRIVVPAADIPAYKDIQPSDLEYREVPKDEISEDAVTDPQEVINKYSTSPLYAGWPINKNIIET | -0.0405
HMGSYANAWQLAEHAAKDMLGEVIYLLDGKEVHAGILETMSAESIKTASAENVDGKVVIRLVSK | -0.15
HMGSYIGEAKAKEIALSHAGVSASQATFVRSQFEYDDGRAVYDVDFWSGNKEYDYEIDAKSGTIVSYDFD | -0.736
HMGSYVVQLGAFAIRANAEKLAREVDGSIATSGRFSLVRVGPFTSRGQAEQALAKLRARGYSDALIHSL | -2.39
HMGTDFRPVFQYVDELVRAGEFTNLKGMIYFTDGRGIFPEKKPDYDAAFVFLDDGYDPPDVPVWAIKLVL | -0.0422
HMGTGSSAERITMLNSILERQIQAMEIQGNPDAPIVNIQKIYTTLQRIVETAGLKDVDQFFMNPLQGQKEM | -0.134
HMGTIRAPMPGTILKINVVDGDSVTKGDVLLILESMKMENSITSPKTGSVTSVYVSEGDPVQHGETLIDL | -0.196
HMGTISKRINPSGTTVYRAVIRIRKNGYPNFTESRTFSKKSMAAEWVKRREAEIELNPDILFG | -2.57
HMGTLSLLVQKLMAVGLEGAKASEIVERFDRERIERQINALPSRKIKSSRTGFLIRAIELDIPVE | -2.58
HMGTPKMPLSLYLSMVENLRSLKRFALVNQQVKDGFVFFNDVAGIKRLQELLNYHNTGEKPSE | -2
HMGTRIQAVMEDIQSRIAARTYLPGTRLPSVRAQAQAMQVSVSTVVEAYERLAAEGVIASRPGSGFYVAGP | -3.05
HMGTRPAYAADAPNPQKRFIYHRIVDQLRNKATGAPISYRAIAAETGVSVQTVINIKNRMNQMLSEK | -1.27
HMGTRPIQIASFSKEENAKRAVEALAKIGITAQPQKSGSATKAVWGVVANGDADLLAKIKAAGFADAYFL | 0.0154
HMGTRTILGIDPGSRKTGFGIIRLDGSRTHYVSSGVIRIPDTALPERLKIIFASLNEIIQQFQPQEV | -0.339
HMGTRYVEFVIPGTGNHEVRIVSSNGSRQNVEVAGTYPGGARLRTKVDNGVRRVSFYVDNRLVEEKQ | -0.26
HMGTSFKITFYKDAFQVDDGPIRMLNDPANQKFVDEVSQGYAPKELIGQGGKAPEIDIIDKRSENAPT | 0.156
HMGTVFTDIMTDIASGKFPNVFPDSLEAQIQKNVTMAPDKLSATLQYGDKSVILPTTKGKEAAEAAVKAA | 0.000803
HMGTYTSALDGIKGLGKKRKMLLLNTYKSIDVLKSVPLTELSQLIPREVAEALLTKLNRVDD | -1.18
HMGVDASVDSKLDLLSQVLDSDQVKEQLPEAVLEQLAQNLDRWRSLHEESELQDDDIAELNRLLGLFGLG | 0.111
HMGVEKHLRITGTSTVSWKDAIVQAVAEASKTIDYLSNVKIIEQRARIDGKKLVEYFVDLDLSFVID | -0.23
HMGVGITAPLAGNIFKIVVQPGDVVASGDVVLVLEAMKMETEIRAASGGTVSQVLVREGDAVDAGHTLITL | -2.85
HMGVGVTAPLAGNIFKIVKQPGDVVASGDVVLILEAMKMETEIRAAAGGTVKQVLVREGDAVDAGHTLMTL | -1.38
HMGVHSVVPDIKNKHYGEAKAILAANGLSIEISDSIYDRSVAPGTVVESWPKAGAIVKGDRAVFVTLTAF | -1.61
